Target: mRXFP1 (UniProt Q9HBX9)
Assay: cell-based or functional assay

Chain of mRXFP1 (Q9HBX9 whole entry): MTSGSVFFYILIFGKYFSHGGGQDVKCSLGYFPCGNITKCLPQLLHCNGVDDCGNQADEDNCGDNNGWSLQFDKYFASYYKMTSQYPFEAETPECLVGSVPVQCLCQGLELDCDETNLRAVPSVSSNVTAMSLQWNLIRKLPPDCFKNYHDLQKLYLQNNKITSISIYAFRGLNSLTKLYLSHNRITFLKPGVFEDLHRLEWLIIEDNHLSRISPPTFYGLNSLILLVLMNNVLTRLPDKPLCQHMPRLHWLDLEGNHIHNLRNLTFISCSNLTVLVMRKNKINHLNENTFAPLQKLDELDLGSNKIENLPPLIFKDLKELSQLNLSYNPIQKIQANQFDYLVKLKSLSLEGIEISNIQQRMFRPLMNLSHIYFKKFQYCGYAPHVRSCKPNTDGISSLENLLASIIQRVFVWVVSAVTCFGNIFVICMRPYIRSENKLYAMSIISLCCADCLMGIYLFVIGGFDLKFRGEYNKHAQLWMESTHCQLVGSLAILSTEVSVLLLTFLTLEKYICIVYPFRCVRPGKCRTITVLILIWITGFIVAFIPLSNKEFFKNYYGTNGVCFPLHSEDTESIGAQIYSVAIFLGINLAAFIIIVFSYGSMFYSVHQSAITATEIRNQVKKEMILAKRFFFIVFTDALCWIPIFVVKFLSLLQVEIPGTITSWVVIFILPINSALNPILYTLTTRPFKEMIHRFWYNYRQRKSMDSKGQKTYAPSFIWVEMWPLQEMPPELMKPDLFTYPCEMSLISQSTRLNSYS

intracellular cAMP in human fibroblast-like synoviocytes: > 15 fold
Substance: recombinant RLX (serelaxin) (from UniProt P04090 25-53; P04090 162-185) (ligand)

Reference: patent US20240024505A1
